Experimental data: patent US10500249B2, “Compositions and methods for preventing or treating diseases, conditions, or processes characterized by aberrant fibroblast proliferation and extracellular matrix deposition” (MOERAE MATRIX, INC., priority 2014, dated 2019)

Tests used:
Assay in all cases: Kinase Profiling Assay
Format in all cases: biochemical
Conditions in all cases: 100 μM
Met(D1246H) (h) = Met(D1246H) (h) (Homo sapiens, UniProt P08581, D1228H)
How it was run: (§1)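 Duplicate wells; [radiolabeled] ATP phosphate onto cationic substrate; filter capture (negatively charged membrane); scintillation count; % of 100% activity control. Selectivity screen of MK2 peptide inhibitors, 266 human kinases.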

CDK6/cyclinD3 (h) = target: T1, CDK6/cyclinD3 (h) (Homo sapiens, UniProt Q00534)
T1 construct: purchased Millipore
T1 sequence (Q00534 whole entry): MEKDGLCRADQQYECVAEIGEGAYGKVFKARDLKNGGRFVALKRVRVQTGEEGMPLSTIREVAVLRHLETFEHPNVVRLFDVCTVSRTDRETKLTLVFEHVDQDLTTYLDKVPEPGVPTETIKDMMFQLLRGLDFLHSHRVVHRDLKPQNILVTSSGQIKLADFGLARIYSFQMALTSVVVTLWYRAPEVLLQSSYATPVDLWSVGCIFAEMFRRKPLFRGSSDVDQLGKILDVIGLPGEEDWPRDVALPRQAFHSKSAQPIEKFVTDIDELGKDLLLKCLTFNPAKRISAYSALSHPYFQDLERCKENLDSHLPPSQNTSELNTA
T1 sequence (P30281 whole entry partner): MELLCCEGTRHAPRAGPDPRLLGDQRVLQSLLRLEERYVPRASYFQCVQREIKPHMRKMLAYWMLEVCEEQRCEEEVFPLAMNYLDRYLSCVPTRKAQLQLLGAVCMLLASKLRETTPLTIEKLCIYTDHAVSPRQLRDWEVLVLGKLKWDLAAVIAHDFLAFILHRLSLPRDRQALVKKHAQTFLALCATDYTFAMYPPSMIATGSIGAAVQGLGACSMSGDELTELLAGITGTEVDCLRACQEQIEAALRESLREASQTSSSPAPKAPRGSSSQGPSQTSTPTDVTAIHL
How it was run: as §1

EphB1 (h) = target: T2, EphB1 (h) (Homo sapiens, UniProt P54762)
T2 sequence (P54762 18-984): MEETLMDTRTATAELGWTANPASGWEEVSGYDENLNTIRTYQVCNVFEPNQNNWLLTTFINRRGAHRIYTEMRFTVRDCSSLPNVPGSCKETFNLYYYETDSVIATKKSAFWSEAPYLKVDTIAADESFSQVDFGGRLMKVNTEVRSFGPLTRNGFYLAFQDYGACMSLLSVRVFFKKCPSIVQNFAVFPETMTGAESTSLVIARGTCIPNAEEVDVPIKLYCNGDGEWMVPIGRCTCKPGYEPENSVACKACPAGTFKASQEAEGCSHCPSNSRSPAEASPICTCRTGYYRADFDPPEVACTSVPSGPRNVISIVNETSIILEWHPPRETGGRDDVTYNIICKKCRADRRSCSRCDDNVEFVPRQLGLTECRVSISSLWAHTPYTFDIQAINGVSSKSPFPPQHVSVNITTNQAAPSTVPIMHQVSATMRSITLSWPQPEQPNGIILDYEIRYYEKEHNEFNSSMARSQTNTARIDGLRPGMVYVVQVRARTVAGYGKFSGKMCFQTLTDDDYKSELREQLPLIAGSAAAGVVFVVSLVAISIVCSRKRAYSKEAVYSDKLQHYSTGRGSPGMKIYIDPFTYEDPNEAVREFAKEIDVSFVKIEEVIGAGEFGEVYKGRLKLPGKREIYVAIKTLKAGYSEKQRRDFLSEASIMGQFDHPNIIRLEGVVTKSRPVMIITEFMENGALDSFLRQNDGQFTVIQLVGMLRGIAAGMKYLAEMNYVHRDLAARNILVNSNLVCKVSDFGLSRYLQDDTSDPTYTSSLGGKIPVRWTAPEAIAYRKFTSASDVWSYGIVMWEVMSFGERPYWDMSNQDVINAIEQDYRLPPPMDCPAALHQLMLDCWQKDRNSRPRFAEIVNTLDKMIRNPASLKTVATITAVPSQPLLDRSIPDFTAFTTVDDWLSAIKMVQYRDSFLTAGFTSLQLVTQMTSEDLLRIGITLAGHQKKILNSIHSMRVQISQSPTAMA
How it was run: as §1

CDK9/cyclin T1 (h) = target: T3, CDK9/cyclin T1 (h) (Homo sapiens, UniProt P50750)
T3 construct: purchased Millipore
T3 sequence (P50750 whole entry): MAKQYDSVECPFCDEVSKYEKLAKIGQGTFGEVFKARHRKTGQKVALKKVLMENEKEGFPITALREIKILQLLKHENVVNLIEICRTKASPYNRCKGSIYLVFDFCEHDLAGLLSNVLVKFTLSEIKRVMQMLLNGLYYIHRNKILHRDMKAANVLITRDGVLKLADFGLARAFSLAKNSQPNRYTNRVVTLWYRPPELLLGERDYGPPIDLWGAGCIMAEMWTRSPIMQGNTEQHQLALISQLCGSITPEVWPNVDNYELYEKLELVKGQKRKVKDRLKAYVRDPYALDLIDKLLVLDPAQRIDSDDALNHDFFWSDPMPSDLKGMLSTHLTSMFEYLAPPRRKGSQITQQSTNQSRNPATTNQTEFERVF
T3 sequence (O60563 whole entry partner): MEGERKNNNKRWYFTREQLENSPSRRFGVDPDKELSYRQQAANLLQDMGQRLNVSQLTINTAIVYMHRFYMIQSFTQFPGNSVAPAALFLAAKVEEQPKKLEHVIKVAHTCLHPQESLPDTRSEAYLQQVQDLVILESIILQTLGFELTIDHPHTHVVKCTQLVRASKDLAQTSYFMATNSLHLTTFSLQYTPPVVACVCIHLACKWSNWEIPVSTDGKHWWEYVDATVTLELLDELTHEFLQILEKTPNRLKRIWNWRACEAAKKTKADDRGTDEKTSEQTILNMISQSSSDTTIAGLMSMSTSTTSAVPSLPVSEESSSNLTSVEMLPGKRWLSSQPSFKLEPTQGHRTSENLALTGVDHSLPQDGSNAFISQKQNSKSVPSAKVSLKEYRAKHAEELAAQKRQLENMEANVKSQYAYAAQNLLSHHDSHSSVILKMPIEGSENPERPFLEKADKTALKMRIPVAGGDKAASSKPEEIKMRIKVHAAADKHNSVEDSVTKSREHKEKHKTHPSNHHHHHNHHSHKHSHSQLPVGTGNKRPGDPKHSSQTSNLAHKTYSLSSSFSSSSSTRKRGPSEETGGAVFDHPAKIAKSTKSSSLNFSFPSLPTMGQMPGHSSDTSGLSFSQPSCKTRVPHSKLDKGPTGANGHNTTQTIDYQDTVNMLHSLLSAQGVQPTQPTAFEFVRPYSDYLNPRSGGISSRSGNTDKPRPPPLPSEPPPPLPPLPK
How it was run: as §1

PKBγ (h) = target: T4, PKBγ (h) (Homo sapiens, UniProt Q9Y243)
T4 construct: purchased Millipore
T4 sequence (Q9Y243 whole entry): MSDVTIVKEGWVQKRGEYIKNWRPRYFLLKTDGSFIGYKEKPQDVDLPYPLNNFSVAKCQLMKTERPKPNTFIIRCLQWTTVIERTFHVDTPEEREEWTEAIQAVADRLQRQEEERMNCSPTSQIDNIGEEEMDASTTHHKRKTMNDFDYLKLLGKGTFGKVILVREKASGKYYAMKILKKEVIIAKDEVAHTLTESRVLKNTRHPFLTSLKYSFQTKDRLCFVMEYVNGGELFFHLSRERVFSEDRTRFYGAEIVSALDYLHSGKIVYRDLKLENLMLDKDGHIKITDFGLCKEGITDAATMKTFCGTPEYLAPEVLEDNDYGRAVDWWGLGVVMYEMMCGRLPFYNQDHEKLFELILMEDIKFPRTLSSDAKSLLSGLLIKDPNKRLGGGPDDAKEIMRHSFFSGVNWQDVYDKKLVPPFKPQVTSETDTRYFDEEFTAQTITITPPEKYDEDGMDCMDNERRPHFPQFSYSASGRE
How it was run: as §1

MSK1 (h) = target: T5, MSK1 (h) (Homo sapiens, UniProt O75582)
T5 construct: purchased Millipore
How it was run: as §1

LIMK1 (h) = LIMK1 (h) (Homo sapiens, UniProt P53667)
Chain of LIMK1 (h) (P53667 whole entry): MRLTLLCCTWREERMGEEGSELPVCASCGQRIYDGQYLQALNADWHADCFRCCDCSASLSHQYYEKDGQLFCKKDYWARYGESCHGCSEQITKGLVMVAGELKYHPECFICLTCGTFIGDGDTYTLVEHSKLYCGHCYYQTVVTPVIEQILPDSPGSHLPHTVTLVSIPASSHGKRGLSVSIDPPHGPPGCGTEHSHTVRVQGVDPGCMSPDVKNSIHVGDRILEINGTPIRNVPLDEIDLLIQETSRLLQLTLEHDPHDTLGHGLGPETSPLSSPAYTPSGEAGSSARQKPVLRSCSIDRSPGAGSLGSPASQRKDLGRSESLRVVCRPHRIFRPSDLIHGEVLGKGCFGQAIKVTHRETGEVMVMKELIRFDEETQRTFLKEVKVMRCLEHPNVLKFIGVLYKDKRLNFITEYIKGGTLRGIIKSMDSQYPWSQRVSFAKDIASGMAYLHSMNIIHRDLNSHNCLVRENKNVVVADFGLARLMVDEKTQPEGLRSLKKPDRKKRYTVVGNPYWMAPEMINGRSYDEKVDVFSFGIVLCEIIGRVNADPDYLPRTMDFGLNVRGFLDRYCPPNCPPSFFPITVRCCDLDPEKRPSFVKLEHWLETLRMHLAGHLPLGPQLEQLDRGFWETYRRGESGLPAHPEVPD
How it was run: as §1

MAPKAP-K2 (h) = MAPKAP-K2 (h) (Homo sapiens, UniProt P49137)
Chain of MAPKAP-K2 (h) (P49137 whole entry): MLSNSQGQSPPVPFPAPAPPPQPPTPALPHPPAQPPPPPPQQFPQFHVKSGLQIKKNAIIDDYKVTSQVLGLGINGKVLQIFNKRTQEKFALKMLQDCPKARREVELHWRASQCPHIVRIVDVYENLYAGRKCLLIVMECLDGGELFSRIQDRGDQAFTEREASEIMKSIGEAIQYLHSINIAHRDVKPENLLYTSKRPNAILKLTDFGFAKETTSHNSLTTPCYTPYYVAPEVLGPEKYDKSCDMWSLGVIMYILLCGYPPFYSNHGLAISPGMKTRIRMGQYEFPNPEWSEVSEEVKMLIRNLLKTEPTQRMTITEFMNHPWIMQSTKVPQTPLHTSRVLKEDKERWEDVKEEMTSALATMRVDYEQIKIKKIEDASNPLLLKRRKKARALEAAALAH
How it was run: as §1

EGFR(L861Q) (h) = target: T6, EGFR(L861Q) (h) (Homo sapiens, UniProt P00533, L861Q)
T6 construct: purchased Millipore
How it was run: as §1

MELK (h) = MELK (h) (Homo sapiens, UniProt Q14680)
Chain of MELK (h) (Q14680 whole entry): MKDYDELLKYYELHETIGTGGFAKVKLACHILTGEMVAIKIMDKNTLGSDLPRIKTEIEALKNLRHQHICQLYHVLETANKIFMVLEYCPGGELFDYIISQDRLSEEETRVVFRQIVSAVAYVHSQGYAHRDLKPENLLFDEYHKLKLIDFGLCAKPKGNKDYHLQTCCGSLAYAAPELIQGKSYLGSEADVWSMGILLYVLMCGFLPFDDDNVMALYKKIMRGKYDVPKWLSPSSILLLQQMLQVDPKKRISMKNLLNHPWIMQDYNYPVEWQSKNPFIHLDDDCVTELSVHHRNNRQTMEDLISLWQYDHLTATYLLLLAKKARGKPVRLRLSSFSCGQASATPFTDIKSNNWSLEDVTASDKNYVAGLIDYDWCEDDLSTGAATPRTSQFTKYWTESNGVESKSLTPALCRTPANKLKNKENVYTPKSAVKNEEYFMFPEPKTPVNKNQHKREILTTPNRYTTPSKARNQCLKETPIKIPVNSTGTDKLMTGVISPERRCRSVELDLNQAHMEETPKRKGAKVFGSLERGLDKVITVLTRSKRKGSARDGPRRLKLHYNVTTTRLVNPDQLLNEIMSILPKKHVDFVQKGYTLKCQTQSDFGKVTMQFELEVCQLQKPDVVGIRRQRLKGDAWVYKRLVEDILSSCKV
How it was run: as §1

TAO1 (h) = target: T7, TAO1 (h) (Homo sapiens, UniProt Q7L7X3)
T7 sequence (Q7L7X3 1-1001): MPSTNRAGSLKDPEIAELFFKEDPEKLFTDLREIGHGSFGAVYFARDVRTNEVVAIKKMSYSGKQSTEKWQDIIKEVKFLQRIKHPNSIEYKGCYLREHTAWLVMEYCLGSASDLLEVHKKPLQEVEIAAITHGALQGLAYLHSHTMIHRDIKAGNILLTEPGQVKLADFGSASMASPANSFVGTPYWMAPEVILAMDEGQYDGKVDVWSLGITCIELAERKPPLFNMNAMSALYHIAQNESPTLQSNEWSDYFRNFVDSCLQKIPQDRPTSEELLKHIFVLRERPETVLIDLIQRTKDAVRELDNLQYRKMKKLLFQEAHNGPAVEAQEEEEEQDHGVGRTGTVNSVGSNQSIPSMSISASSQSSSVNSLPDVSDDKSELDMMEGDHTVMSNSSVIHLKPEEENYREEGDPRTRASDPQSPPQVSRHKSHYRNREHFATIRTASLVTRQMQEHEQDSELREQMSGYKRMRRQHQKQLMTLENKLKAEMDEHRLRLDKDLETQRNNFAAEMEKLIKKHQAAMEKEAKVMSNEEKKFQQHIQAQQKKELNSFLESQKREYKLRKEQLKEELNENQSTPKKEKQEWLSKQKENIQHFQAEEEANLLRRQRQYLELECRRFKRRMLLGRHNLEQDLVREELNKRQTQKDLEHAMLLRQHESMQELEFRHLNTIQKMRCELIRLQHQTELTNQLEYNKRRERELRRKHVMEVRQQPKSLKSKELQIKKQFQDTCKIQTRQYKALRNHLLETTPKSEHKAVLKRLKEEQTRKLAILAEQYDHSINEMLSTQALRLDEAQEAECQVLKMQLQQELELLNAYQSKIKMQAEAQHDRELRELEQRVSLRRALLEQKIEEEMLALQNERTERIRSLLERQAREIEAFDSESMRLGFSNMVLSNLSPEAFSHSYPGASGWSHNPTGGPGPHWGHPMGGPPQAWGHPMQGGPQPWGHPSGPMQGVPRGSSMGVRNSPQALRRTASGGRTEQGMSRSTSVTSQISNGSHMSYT
How it was run: as §1

CDK5/p35 (h) = target: T8, CDK5/p35 (h) (Homo sapiens, UniProt Q00535)
T8 construct: purchased Millipore
T8 sequence (Q00535 whole entry): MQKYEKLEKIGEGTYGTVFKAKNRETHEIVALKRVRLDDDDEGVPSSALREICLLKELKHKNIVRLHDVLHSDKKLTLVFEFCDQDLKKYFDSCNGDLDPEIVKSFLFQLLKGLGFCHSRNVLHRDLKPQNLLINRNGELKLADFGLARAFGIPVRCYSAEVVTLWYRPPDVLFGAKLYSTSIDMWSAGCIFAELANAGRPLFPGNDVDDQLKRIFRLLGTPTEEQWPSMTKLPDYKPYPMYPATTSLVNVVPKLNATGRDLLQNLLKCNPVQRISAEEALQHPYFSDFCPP
T8 sequence (Q15078 2-307 partner limits assumed): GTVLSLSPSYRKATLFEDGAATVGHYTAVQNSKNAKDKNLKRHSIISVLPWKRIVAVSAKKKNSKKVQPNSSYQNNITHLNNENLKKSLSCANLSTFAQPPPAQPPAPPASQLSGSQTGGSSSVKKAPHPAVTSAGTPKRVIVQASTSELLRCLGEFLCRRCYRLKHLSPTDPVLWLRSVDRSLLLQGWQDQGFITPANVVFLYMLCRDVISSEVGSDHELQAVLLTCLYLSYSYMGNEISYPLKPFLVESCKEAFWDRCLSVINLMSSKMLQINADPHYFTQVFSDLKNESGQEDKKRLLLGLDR
How it was run: as §1

CSK (h) = target: T9, CSK (h) (Homo sapiens, UniProt P41240)
T9 construct: purchased Millipore
T9 sequence (P41240 whole entry): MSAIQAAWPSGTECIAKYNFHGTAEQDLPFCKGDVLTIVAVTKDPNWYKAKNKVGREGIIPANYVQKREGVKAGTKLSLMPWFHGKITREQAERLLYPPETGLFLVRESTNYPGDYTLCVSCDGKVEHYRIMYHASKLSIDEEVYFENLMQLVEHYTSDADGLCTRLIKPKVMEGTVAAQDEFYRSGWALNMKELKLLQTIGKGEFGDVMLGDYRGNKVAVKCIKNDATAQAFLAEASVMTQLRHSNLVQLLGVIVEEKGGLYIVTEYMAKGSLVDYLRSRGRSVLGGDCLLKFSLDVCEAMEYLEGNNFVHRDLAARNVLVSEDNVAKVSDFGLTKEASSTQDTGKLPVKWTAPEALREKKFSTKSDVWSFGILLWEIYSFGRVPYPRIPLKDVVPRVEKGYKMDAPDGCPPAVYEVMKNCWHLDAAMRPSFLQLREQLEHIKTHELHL
How it was run: as §1

Sequence | % activity (Met(D1246H) (h)) [%] | % activity (CDK6/cyclinD3 (h)) [%] | % activity (EphB1 (h)) [%] | % activity (CDK9/cyclin T1 (h)) [%] | % activity (PKBγ (h)) [%] | % activity (MSK1 (h)) [%] | % activity (LIMK1 (h)) [%] | % activity (MAPKAP-K2 (h)) [%] | % activity (EGFR(L861Q) (h)) [%] | % activity (MELK (h)) [%] | % activity (TAO1 (h)) [%] | % activity (CDK5/p35 (h)) [%] | % activity (CSK (h)) [%]
FAKLAARLYRKALARQLGVAA [MMI-0300] | 125 | 86 | 44 | 91 | 20 | 32 | 88 | 5 | 25 | 16 | 82 | 79 | 49
HRRIKAWLKKIKALARQLGVAA (Mammalian) [MMI-0500] | 150 | 23 | 37 | 6 | 20 | 8 | 87 | 9 | 15 | 0 | 24 | 59 | 2
KAFAKLAARLYRKALARQLGVAA [MMI-0400] | 68 | 85 | 58 | 235 | 41 | 28 | 92 | 5 | 22 | 17 | 73 | 76 | 16
YARAAARQARAKALNRQLGVA (Mammalian) [MMI-0200] | 139 | 100 | 95 | – | – | 50 | – | 35 | 74 | 59 | – | 92 | 33
